Data set [1] is described as follows: folding stability dG unfold from trypsin proteolysis; higher = more stable. As for the experimental part:
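Folding stability of de novo designed mini-proteins (<80 aa, no Cys; designed by TrROS, TrMRF, ProteinMPNN and the joint model) was measured by cDNA display proteolysis with trypsin and chymotrypsin. Each protease was used at 11 concentrations in a threefold dilution series plus a no-protease condition. K50 was inferred by Bayesian fitting of sequencing counts, and dG unfold was derived against a sequence-predicted unfolded-state K50 (Tsuboyama et al. method). Sequences shown include variable-length N-terminal GS-type padding (SAGGSAGG...) inside a display construct carrying a PA tag. Rows were kept only if the AF2 dimer inter-PAE was >15, to exclude likely homo-oligomers.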

Data set [2] in a line: folding stability dG unfold (combined trypsin and chymotrypsin); higher = more stable. The method in brief:
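K50 was inferred by Bayesian fitting of sequencing counts obtained after protease digestion of designed mini-proteins. Unfolding free energy was derived by comparison with a sequence-predicted unfolded-state K50 and a shared folded-state K50, for each protease or both combined. The mini-proteins were under 80 residues, had no cysteine, were carried in a PA-tagged cDNA display construct, and were kept only if AlphaFold2 dimer inter-PAE exceeded 15.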

± gives the half width of the 95% confidence interval.

For the sequence “SAGGSAGGSAGGGSMTLSLDTRPEDGTLVLVSTFVDPASGLVSVTTTYPDSTVTTTLPVGSAGGSAGGSAGG [r7_402_JUSTAS]”, the entries for the “folding stability dG unfold” value in data set [1] and in data set [2] were 0.998 ± 0.049 kcal/mol and 0.528 ± 0.087 kcal/mol, respectively.

On to “SAGGSAGGSAGGIWIPGDDIKEALKKMPPDVTKHIFNPDEGRWIMIKVNDNKIDIEPWPSAGGSAGGSAGGS [r10_137_TrROS]”, for which the entries for the “folding stability dG unfold” value in data set [1] and in data set [2] were -0.392 ± 0.16 kcal/mol and -0.748 ± 0.36 kcal/mol, respectively.

Regarding “SAGGSAGGSAGGKEIPLDEVKDIQPSNDKWYVVFPGKPQRFPPDDIPIPPGKPIRIYPLSAGGSAGGSAGGS [r10_665_TrROS]”, the entries for the “folding stability dG unfold” value in data set [1] and in data set [2] were 0.338 ± 0.058 kcal/mol and -0.154 ± 0.24 kcal/mol, respectively.

Regarding “SAGGSAGGSAGGKGWPTVEIPMPENGKPTPDSIEEIAEKFNMPNVEVEQSDDWHKIDVDSAGGSAGGSAGGS [r10_642_TrROS]”, the “folding stability dG unfold” value is 0.92 ± 0.047 kcal/mol in data set [1] and -0.295 ± 0.32 kcal/mol in data set [2].

Take “SAGGSAGGSAGGKLVKVTFRTPGGGTLTVEVPPTESLTLPYGDKPILVDVKEDEVVFRDESAGGSAGGSAGG [r7_510_TrMRF]”: the “folding stability dG unfold” value in data set [1] was -0.572 ± 0.18 kcal/mol; in data set [2], -0.891 ± 0.44 kcal/mol.

Take “SAGGSAGGSAGGKPIYILAEHPSNGKVVLLPVDSPEKAIEFAKALADVPDFKIAHVDAFGSAGGSAGGSAGG [r11_951_TrMRF]”: the results for the “folding stability dG unfold” value in data set [1] and in data set [2] were 0.341 ± 0.052 kcal/mol and -0.287 ± 0.22 kcal/mol, respectively.

In the case of “SAGGSAGGSAGGLADLLKGKTFTVTFPEGDKPYPATFEPTADDTVRVGFPDGDSYPVPAAYQSAGGSAGGSA [r18_169_TrMRF]”, the “folding stability dG unfold” value in data set [1] is -0.466 ± 0.2 kcal/mol; in data set [2], under -1 kcal/mol.

“SAGGSAGGSAGGLKIQRFPDGNWYRIYLPNGNEHHIPMDEPIKVPNAKEPVKIEPVPPDDSAGGSAGGSAGG [r7_968_TrROS]”: the “folding stability dG unfold” value was -0.936 ± 0.28 kcal/mol in data set [1] and -0.961 ± 0.41 kcal/mol in data set [2].

“SAGGSAGGSAGGMITKVTVTYLPGGEVSLTITDENGTPSEKTLSLAELKKYPDIPLELDPSAGGSAGGSAGG [r7_238_JUSTAS]”: the “folding stability dG unfold” value is 0.174 ± 0.05 kcal/mol in data set [1] and -0.374 ± 0.088 kcal/mol in data set [2].

For “SAGGSAGGSAGGMKVEVVDITGPPDLSPDATTTTKHPNGVTSTTTMTDPATRTSTIYTPESAGGSAGGSAGG [r11_362_JUSTAS]”, the results for the “folding stability dG unfold” value in data set [1] and in data set [2] were -0.899 ± 0.83 kcal/mol and under -1 kcal/mol, respectively.

Regarding “SAGGSAGGSAGGMKVSVSLDILETEVSPDGTVTATYKDESGEIRTITKYVEVKLKPGLASAGGSAGGSAGGS [r10_281_JUSTAS]”, the “folding stability dG unfold” value was -0.148 ± 0.067 kcal/mol in data set [1] and -0.237 ± 0.19 kcal/mol in data set [2].

“SAGGSAGGSAGGMTEYVPGEGKVLVTYPDGTTKVVPVDPATPEEFRAELEAAGVPEIKPLSAGGSAGGSAGG [r7_139_JUSTAS]”: the results for the “folding stability dG unfold” value in data set [1] and in data set [2] were 0.762 ± 0.027 kcal/mol and 0.198 ± 0.085 kcal/mol, respectively.

“SAGGSAGGSAGGMTTITVKDKTKEEIEKELAEKYNVKKVTVTPIEGNSVKVEVEIEPLGSAGGSAGGSAGGS [r10_1219_JUSTAS]”: the “folding stability dG unfold” value is -0.216 ± 0.19 kcal/mol in data set [1] and -0.948 ± 0.46 kcal/mol in data set [2].

“SAGGSAGGSAGGPEYIQINIKIYDPDNPKEREIPISMPVEEIEKIAKEFMPPGYRVEIISAGGSAGGSAGGS [r10_397_TrROS]”: the “folding stability dG unfold” value in data set [1] is 0.152 ± 0.14 kcal/mol; in data set [2], under -1 kcal/mol.

“SAGGSAGGSAGGPIKVKADKVTVEKRRNPENGKEYVELTVPGPGGTRTGRFPAEDLDKISAGGSAGGSAGGS [r10_447_TrROS]”: the entries for the “folding stability dG unfold” value in data set [1] and in data set [2] were -0.654 ± 0.21 kcal/mol and under -1 kcal/mol, respectively.

Turning to “SAGGSAGGSAGGPKIDHVMLHRNPGNGRYNVTIKLRDPNGKPKDTIMVPMNDPEKILDALSAGGSAGGSAGG [r7_484_TrROS]”, the results for the “folding stability dG unfold” value in data set [1] and in data set [2] were -0.0862 ± 0.06 kcal/mol and -0.652 ± 0.22 kcal/mol, respectively.

On to “SAGGSAGGSAGGPMSNVVEEVVSVEVTNPGLPDSRFVTNPEPGVPLPVPRTVPVVIVLRASAGGSAGGSAGG [r11_257_JUSTAS]”, for which the “folding stability dG unfold” value in data set [1] was -0.602 ± 0.33 kcal/mol; in data set [2], under -1 kcal/mol.

Turning to “SAGGSAGGSAGGPSDVTLLEEEVEELPNGTIKTRYTFKLPNGELAEAESTTPLEGPFHHSAGGSAGGSAGGS [r10_532_JUSTAS]”, the results for the “folding stability dG unfold” value in data set [1] and in data set [2] were -0.0802 ± 0.2 kcal/mol and -0.463 ± 0.26 kcal/mol, respectively.

As to “SAGGSAGGSAGGRIRLPNMPPGHDMEIKSIKVPEPGPVKLTIEPPGSDKKQERYMPPDDISAGGSAGGSAGG [r7_342_TrROS]”, the “folding stability dG unfold” value in data set [1] is 0.0711 ± 0.23 kcal/mol; in data set [2], under -1 kcal/mol.

“SAGGSAGGSAGGRITINPENGMVQIKGPNGNQHTFPMDDASELQKEFGLPNIDIEVFPPNSAGGSAGGSAGG [r7_235_TrROS]”: the results for the “folding stability dG unfold” value in data set [1] and in data set [2] were 0.292 ± 0.15 kcal/mol and -0.145 ± 0.22 kcal/mol, respectively.

As for “SAGGSAGGSAGGSEPWYVRIQIPDGNQIMFPPGSEAKIEIPKEEKDIRITEVIPADDIKSAGGSAGGSAGGS [r4_122_TrROS]”, the results for the “folding stability dG unfold” value in data set [1] and in data set [2] were 0.0224 ± 0.13 kcal/mol and under -1 kcal/mol, respectively.

The values above are taken from the supplement of paper PMC12764529.
